# Assay results from US8153759B2, “Depsipeptide containing lactic acid residue” (National University Corporation Gunma University, priority 2006, dated 2012).
# Non-standard residues stand in square brackets, D forms with d. No end group written: not given here. Hmb = valic acid residue (β-branched hydroxycarboxylic acid); Lac = C[C@H](O)C(=O)O
# Test: Observation of temperature responsiveness by apparent absorbance (turbidity at 350 nm) of aqueous polymer solutions
# Type: physicochemical
# Details: for aggregation temperature / temperature responsiveness (gelation/aggregation by heating, liquefaction by cooling): reversibility: aqueous solution 10 mg/mL; for aggregation temperature: rate 1° C./5 minutes, 350 nm (FIG. 9); for temperature responsiveness (gelation/aggregation by heating, liquefaction by cooling): reversibility: temperature-increase and -decrease rate 1° C./5 minutes between 20° C. and 70° C., 350 nm
# Protocol: (§1) FIG. 5 illustrates a graph obtained by the following procedure: an aqueous solution of poly(Gly-Ile-Gly-Lac-Pro) (SEQ ID NO: 7) (10 mg/mL) which is one embodiment of the present invention was put in a 1-mm-thick quartz cell for absorption spectra; the temperature was increased at a rate of 1° C./5 minutes between 20° C. and 70° C. and then decreased; transmittance (%) was measured with respect to a light of 350 nm at each temperature in a 1° C. interval; and a turbidity (%) obtained by subtracting the transmittance (%) from 100 was plotted.
# FIG. 6 illustrates a graph obtained by the following procedure: an aqueous solution of poly(Ala-Ile-Gly-Lac-Pro) (SEQ ID NO: 8) (10 mg/mL) which is one embodiment of the present invention was put in a 1-mm-thick quartz cell for absorption spectra; the temperature was increased at a rate of 1° C./5 minutes between 20° C. and 70° C. and then decreased; transmittance (%) was measured with respect to a light of 350 nm at each temperature in a 1° C. interval; and a turbidity (%) obtained by subtracting the transmittance (%) from 100 was plotted.
# as §1, with “FIG. 9” for “FIG. 5”, “of poly(Gly-Val-Gly-Lac-Pro)” for “of poly(Gly-Ile-Gly-Lac-Pro)”, “NO: 9)” for “NO: 7)”, “plotted. In addition, as a comparative example, a plot of an aqueous solution (10 mg/mL) of poly(Gly-Val-Gly-Hmb-Pro) was shown.” for “plotted.”
# FIG. 10 illustrates a graph obtained by the following procedure: an aqueous solution of poly(Gly-Val-Gly-Lac-Pro) (SEQ ID NO: 9) which is one embodiment of the present invention with different concentrations (10, 20, 30, and 40 mg/mL) was put in a 1-mm-thick quartz cell for absorption spectra; the temperature was increased at a rate of 1° C./5 minutes between 20° C. and 70° C. and then decreased; transmittance (%) was measured with respect to a light of 350 nm at each temperature in a 1° C. interval; and a turbidity (%) obtained by subtracting the transmittance (%) from 100 was plotted.
# FIG. 11 illustrates a graph obtained by the following procedure: an aqueous solution of poly(Gly-Val-Gly-Lac-Pro) (SEQ ID NO: 9) (40 mg/mL) which is one embodiment of the present invention was put in a 1-mm-thick quartz cell for absorption spectra; the temperature was increased at a rate of 1° C./5 minutes between 20° C. and 70° C. and then decreased; transmittance (%) was measured with respect to a light of 350 nm at each temperature in a 1° C. interval; and a turbidity (%) obtained by subtracting the transmittance (%) from 100 was plotted.
# The change in temperature responsiveness of each polymer obtained in Examples 2 and 4 due to heating an aqueous solution of the polymer was observed by apparent absorbance. The wavelength for observation was 350 nm. The wavelength corresponds to phenomenon of light scattering, i.e. white turbidity, by visual observation. Here, spectrum of poly(Gly-Ile-Gly-Lac-Pro (SEQ ID NO: 7)) and poly(Ala-Ile-Gly-Lac-Pro) (SEQ ID NO: 8) are shown in FIG. 5 and FIG. 6, respectively. The ordinate axes each represent turbidity converted from the transmittance. From the figure, the temperature responsiveness rate can be compared. […] In addition, in comparison between the observation by visual observation and the measured turbidity, the polymer underwent aggregation adequately even when the turbidity exceeds about 10 to 20%. […] The solution was actually returned to a uniform solution finally by left standing at 4° C. for 1 to 2 days. The extremely slow responsiveness (return to a uniform solution) at a low temperature is a novel property that has not happened before. […]
Substance,aggregation temperature,"temperature responsiveness (gelation/aggregation by heating, liquefaction by cooling): reversibility",also measured
"poly(Gly-Val-Gly-Hmb-Pro) (GVG[Hmb]P; also: polymerized repeat unit) [comparative depsipeptide polymer, Hmb=2-hydroxy-3-methylbutanoic acid (valic acid residue), reference compound]",20-30 °C,–,–
"poly(Ala-Ile-Gly-Lac-Pro) (AIG[Lac]P; numbers in words are those of the source; also: polymerized repeat, ~10 units) [depsipeptide polymer, polymerization degree about 10 (molecular weight about 4,500)]",–,irreversible temperature responsiveness for several hours even when cooled,"time left standing until aggregated solution returned to a uniform solution (aggregation state at high temperature transferred to low temperature, left standing at 4° C.): 1 to 2 days"
poly(Gly-Val-Gly-Lac-Pro) (GVG[Lac]P; also: polymerized repeat unit),≥ 70 °C,–,"reversibility of phase transition phenomenon (aqueous solution 40 mg/mL, 1° C./5 minutes, 20-70° C. (FIG. 11)): reversible; aggregation temperature at increased concentration (aqueous solution, concentration increased in the range 10 to 40 mg/mL (FIG. 10)): ≤ 70 °C; concentration dependence of aggregation temperature (range of 10 to 40 mg/mL (FIG. 10)): decrease with the increase in the concentration"
"poly(Gly-Ile-Gly-Lac-Pro) (GIG[Lac]P; numbers in words are those of the source; also: polymerized repeat, ~3 units) [depsipeptide polymer, polymerization degree about 3 (molecular weight about 1,200)]",–,reversible temperature responsiveness,–
